Entries after “also recorded” stand apart in the source; their conditions may differ.
Experiments:
Format in all cases: cell-based, human
κAPC = assay: Proinflammatory phenotype of κAPC (KX2 refinement); conditions: in the presence of tumor cells
Text: Karnelian X1 cytokines, additional cytokines, TLR ligands and other factors for phenotypic optimization of cMo-derived APCs were further tested. These efforts led to the formation of Karnelian X2, which acted to further bolster κAPC for phagocytosis, immunogenic antigen presentation, and T cell priming, and also endowed κAPC with a proinflammatory phenotype and the ability to resist repolarization in the tumor microenvironment. KX2™ comprises cytokines (choices of IFNα, IFNγ and TNFα), TLR ligands (choices of Poly IC, CpG, R848), and TPI-1.

[1] = tested on: monocytes from cancer patients (cMo); assay: cMo survival in vitro (STAT3 activators, inhibitors, M-CSF/GM-CSF, KX1)
Text: After two days, the T cell culture medium was used to treat cMo.
IL-10/IL-10R signaling activates the downstream STAT3 signaling pathway.
(§1) The mechanisms by which KX1 could promote cMo survival was further studied.

[2] = tested on: monocytes from healthy donors (Mo); assay: Response of monocytes from healthy donors (Mo) to M-CSF and GM-CSF
Text: Similarly, cMo poorly respond to GM-CSF alone or GM-CSF plus IL-4 that drives DC differentiation (data not shown). […] Parallel experiments testing the same M-CSF and GM-CSF reagents successfully differentiated Mo from healthy donors with >90% survival rates.
(§2) Examination of Akt and Erk1/2, as well as other signaling molecules, detected similar total levels in Mo versus cMo (FIG. 2C), ruling out the absence of protein phosphorylation due to reduction of protein translation.

[3] = tested on: monocytes from cancer patients (cMo); assay: Cytokine depletion assays of Karnelian X1 (cMo survival/adhesion and differentiation); conditions: depletion assays
Description: The differentiation of cMo from >100 cancer patient samples was tested.
The role of IL-10 and other key factors in KX1 was further studied.

[4] = tested on: Akt, Erk1/2, STAT3, caspase-9 and caspase-3 in cMo; assay: Survival and apoptosis signal transduction in cMo (Western blotting)
Text: as §2, §1
The role of IL-10 and other key factors in KX1 was further studied. As shown in FIG. 9A-9D, depletion of IL-10 diminished (>70%) KX1-mediated activation of Akt, Erk 1/2, and STAT3, and this global reduction of survival signal was associated with an increase in cell death signal through activation of caspase-9 and caspase-3.
As shown in FIG. 10A-10C, triple cytokine combination (C-combo V1) was capable of achieving >80% cMo differentiation, although each component alone was not sufficient.

IL-10 = IL-10 production by cMo
Text: Particularly, high levels of IL-10 and IL-6 were detected in Karnelian X1. Further cytokine depletion assays confirmed the critical role of IL-10, and its depletion largely (60-80%) diminished the capacity of cMo adhesion and survival (FIG. 5B).

O=C1C=CC(=O)C(c2cc(Cl)ccc2Cl)=C1 [TPI-1]
proinflammatory phenotype of κAPC (κAPC): promotes proinflammatory phenotype of κAPC

B1: M-CSF: classical macrophage differentiation factor (protein, UniProt P09603 33-554, looked up)
Macrophage colony-stimulating …: EEVSEYCSHMIGSGHLQSLQRLIDSQMETSCQITFEFVDQEQLKDPVCYLKKAFLLVQDIMEDTMRFRDNTPNAIAIVQLQELSLRLKSCFTKDYEEHDKACVRTFYETPLQLLEKVKNVFNETKNLLDKDWNIFSKNCNNSFAECSSQDVVTKPDCNCLYPKAIPSSDPASVSPHQPLAPSMAPVAGLTWEDSEGTEGSSLLPGEQPLHTVDPGSAKQRPPRSTCQSFEPPETPVVKDSTIGGSPQPRPSVGAFNPGMEDILDSAMGTNWVPEEASGEASEIPVPQGTELSPSRPGGGSMQTEPARPSNFLSASSPLPASAKGQQPADVTGTALPRVGPVRPTGQDWNHTPQKTDHPSALLRDPPEPGSPRISSLRPQGLSNPSTLSAQPQLSRSHSSGSVLPLGELEGRRSTRDRRSPAEPEGGPASEGAARPLPRFNSVPLTDTGHERQSEGSFSPQLQESVFHLLVPSVILVLLAVGGLLFYRWRRRSHQEPQRADSPLEQPEGSPLTQDDRQVELPV
cMo responsiveness to differentiation factor ([1]; over twenty cMo samples, various solid tumors): non- or poor responsiveness | survival signal transduction in Mo (activation of Akt and Erk1/2) [2]: induced strong survival signal transduction in Mo cells | role of the cytokine in Karnelian X1 for cMo survival and differentiation [3]: dispensable | activation of Akt, Erk1/2, STAT3 in cMo [4]: failed to activate Akt and Erk1/2 | caspase-9 and caspase-3 cleavage in cMo [4]: increased caspase-9 and caspase-3 cleavage; also recorded: did induce apoptotic signals via cleavage of caspase-9 and caspase-3

B2: IL-12: IL-12 family cytokine, STAT3 activator (protein, UniProt P29459 23-219; P29460 23-328, looked up)
Interleukin-12 subunit alpha: RNLPVATPDPGMFPCLHHSQNLLRAVSNMLQKARQTLEFYPCTSEEIDHEDITKDKTSTVEACLPLELTKNESCLNSRETSFITNGSCLASRKTSFMMALCLSSIYEDLKMYQVEFKTMNAKLLMDPKRQIFLDQNMLAVIDELMQALNFNSETVPQKSSLEEPDFYKTKIKLCILLHAFRIRAVTIDRVMSYLNAS
Interleukin-12 subunit beta: IWELKKDVYVVELDWYPDAPGEMVVLTCDTPEEDGITWTLDQSSEVLGSGKTLTIQVKEFGDAGQYTCHKGGEVLSHSLLLLHKKEDGIWSTDILKDQKEPKNKTFLRCEAKNYSGRFTCWWLTTISTDLTFSVKSSRGSSDPQGVTCGAATLSAERVRGDNKEYEYSVECQEDSACPAAEESLPIEVMVDAVHKLKYENYTSSFFIRDIIKPDPPKNLQLKPLKNSRQVEVSWEYPDTWSTPHSYFSLTFCVQVQGKSKREKKDRVFTDKTSATVICRKNASISVRAQDRYYSSSWSEWASVPCS
cMo survival (and differentiation) on supplementation ([1]; IL-10-depleted KX1 / in place of IL-10): could replace IL-10 to support cMo survival and differentiation | Effectiveness (cMo survival rate) ([1]; in vitro, at optimal concentration): 50-70% | Optimal concentration (ng/mL) ([1]; promoting cMo survival in vitro): >10 ng/mL (10-100) | induction of IL-10 in cMo (IL-10): induction of IL-10

Reference: patent US20250205337A1, “COMPOSITIONS AND METHODS FOR ACTIVATING IMMUNE CELLS” (MDX Management LLC, priority 2022, published 2025)
